These are literature values, as cited in paper PMC10845085.

The data set deals with Neurotensin (Homo sapiens) (UniProt P30990).

By Kd is commonly meant the free concentration of one partner at which half of the binding sites on the other are occupied at equilibrium, for simple one-to-one binding. “Neurotensin receptor 2 (from UniProt O95665)”: the Kd was 6 nM.
